Reference: patent US20250195637A1

Key:
[1] = target: F RSV v.3, chimeric HMPV/RSV stabilized F pre-fusion form (mutated extracellular domain of F protein from hRSV with transmembrane and cytoplasmic domains of F protein from hMPV C-85473) (chimera of hRSV (RSV A2 strain, mutated) and hMPV (C-85473)); assay: flow cytometry, Palivizumab-PE on LLC-MK2 cells infected with Bivalent Metavac®-RSV v.3
[2] = target: F RSV v.1, native (wild-type) F protein of hRSV, RSV A2 strain (human respiratory syncytial virus (hRSV), RSV A2 strain) (UniProt P03420); assay: flow cytometry, Palivizumab-PE on LLC-MK2 cells infected with Bivalent Metavac®-RSV v.1
[3] = target: F RSV v.2, mutated F protein from hRSV corresponding to the stabilized prefusion state (human respiratory syncytial virus (hRSV), RSV A2 strain, mutated) (UniProt P03420); assay: flow cytometry, Palivizumab-PE on LLC-MK2 cells infected with Bivalent Metavac®-RSV v.2
[4] = target: Wild-type F protein from the hMPV strain rC-85473 (human metapneumovirus (hMPV), strain rC-85473) (UniProt Q6WB98); assay: flow cytometry, HMPV24-A647 on LLC-MK2 cells infected with Bivalent Metavac®-RSV v.1
[5] = target: Wild-type F protein from the hMPV strain rC-85473 (human metapneumovirus (hMPV), strain rC-85473) (UniProt Q6WB98); assay: flow cytometry, HMPV24-A647 on LLC-MK2 cells infected with rC-85473
[6] = target: Wild-type F protein from the hMPV strain rC-85473 (human metapneumovirus (hMPV), strain rC-85473) (UniProt Q6WB98); assay: flow cytometry, HMPV24-A647 on LLC-MK2 cells infected with Bivalent Metavac®-RSV v.2
[7] = target: Wild-type F protein from the hMPV strain rC-85473 (human metapneumovirus (hMPV), strain rC-85473) (UniProt Q6WB98); assay: flow cytometry, HMPV24-A647 on LLC-MK2 cells infected with Bivalent Metavac®-RSV v.3

| Substance | Infected cells expressing RSV-F [%, GFP and PE positive cells] [1] [%] | Infected cells expressing RSV-F [%, GFP and PE positive cells] [2] [%] | Infected cells expressing RSV-F [%, GFP and PE positive cells] [3] [%] | Infected cells expressing HMPV-F [%, GFP and A647 positive cells] [4] [%] | Infected cells expressing HMPV-F [%, GFP and A647 positive cells] [5] [%] | Infected cells expressing HMPV-F [%, GFP and A647 positive cells] [6] [%] | Infected cells expressing HMPV-F [%, GFP and A647 positive cells] [7] [%] |
| --- | --- | --- | --- | --- | --- | --- | --- |
| Palivizumab Synagis® AstraZeneca, monoclonal humanized antibody detecting both pre-fusion and post-fusion forms of the F RSV protein | 47.2 | 65.5 | 54.6 | – | – | – | – |
| Monoclonal mouse antibody detecting the F HMPV protein (MAb HMPV24 BioRad MCA 4674) | – | – | – | 94.8 | 98.9 | 94.8 | 85.2 |
